Assay results reported in paper PMC3459973.

Biological target: TFAP2 (AP-2) (UniProt P05549)
Assay: DNA pull-down, SILAC MS and immunoblot
Conditions: PBB: 150 mM NaCl, 50 mM Tris/HCl pH 8.0, 10 mM MgCl2, 0.5% NP-40, protease inhibitor; 200 ug SILAC nuclear extract, 2 h at 4 C (automated: 8 C); elution 16 mM …

TFAP2 (AP-2), sequence (P05549 whole entry): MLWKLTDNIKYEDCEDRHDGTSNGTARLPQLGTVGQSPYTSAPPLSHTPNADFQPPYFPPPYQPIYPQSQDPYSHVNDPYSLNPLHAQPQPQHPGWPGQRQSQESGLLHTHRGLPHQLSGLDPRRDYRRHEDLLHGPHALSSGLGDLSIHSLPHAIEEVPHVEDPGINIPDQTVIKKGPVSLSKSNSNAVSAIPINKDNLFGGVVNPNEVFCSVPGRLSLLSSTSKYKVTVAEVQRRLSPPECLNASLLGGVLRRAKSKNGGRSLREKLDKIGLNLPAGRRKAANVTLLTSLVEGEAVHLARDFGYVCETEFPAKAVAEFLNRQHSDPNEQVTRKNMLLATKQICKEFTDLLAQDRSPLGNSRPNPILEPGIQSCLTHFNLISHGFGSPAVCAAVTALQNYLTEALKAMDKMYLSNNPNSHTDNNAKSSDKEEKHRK

AACAAAACTGCAGGATCGAACTGACCGCCCGGGGCACGTGTC / TTGACACGTGCCCCGGGCGGTCAGTTCGATCCTGCAGTTTTG [AP2_C]
binding signal (SILAC ratio C/A): 10
